Columns and labels:
[1] = target: Botulinum neurotoxin type B, subtype B4 (BoNT/B4) (Clostridium botulinum); experiment: flow cytometry; yeast-displayed scFv, soluble toxin
[2] = target: Botulinum neurotoxin type B, subtype B3 (BoNT/B3) (Clostridium botulinum); experiment: as above
[3] = target: Botulinum neurotoxin type B, subtype B4 (BoNT/B4) (Clostridium botulinum); experiment: KinExA flow fluorimetry; IgG in solution
[4] = target: Botulinum neurotoxin type B, subtype B3 (BoNT/B3) (Clostridium botulinum); experiment: KinExA flow fluorimetry; IgG in solution

Row | Binder | Kd [1] [nM] | Kd [2] [nM] | Kd [3] [nM] | Kd [4] [nM]
1 | 2B25 scFv (yeast displayed) (scFv) scFv: QVQLQESGPGLVKPSQTLSLSCSVSGASITSGTFYWSWIRQHPGKDLEWIGYIYYSGTTYYNPSLKSRVTLSVDTSKNQFSLKVTSLTAADTAVYHCARGVPIYDSSGTYRGTYFDYWGQGTLVTVSSGGGGSGGGGSGGGGSQPGLTQPPSASGTPGQRVTISCSGSSSNVGSNTVNWYQQLPGTAPKLLIYRNDQRPSGVPDRFSGSKSGASASLAISGLRSEDEADYYCAAWDDSLNGLLFGGGTQLTVLG | 0.68 | 0.93 |  | 
2 | 2B23 scFv (yeast displayed) (scFv) scFv: EVQLLESGGGLVQPGGSLRLSCAASGFTFSNYPMSWVRQAPGKGLAWVSSLTASGDNTFYADSVKGRFTISRDNSNNTLYLQMHSLRAEDTAVYYCAKALVGRYDISTGYYRPVMDSWGQGTLVTVSSGGGGSGGGGSGGGGSDIQMTQSPPSLSASVGDRVTITCRTSQGFTSALAWYQQKPGEPPKLLIYDASKLESGVPSRFSGSGSGTNFALTISSLQPEDFATYFCQQSNSYPLTFGGGTKVEIKR | 0.19 | 0.25 |  | 
3 | 2B24 scFv (yeast displayed) (scFv) scFv: QVQLVESGGGVVQPGRSLRLSCAASGLTFSVYGMHWVRQAPGKGLEWVAVISHTGSEEYYADSVKGRFSISRDNSNNTLFLQMNSLRPEDTAVYYCVKDGPMAAIPFYYFDFWGQGTLVTVSSGGGGSGGGGSGGGGSQSVVTQPPSVSAAPGQKVTISCSGSSSNIGNNYVSWYQQLPGTAPKLLIYDNNKRPSGIPDRFSGSKSGTSATLGITGLQTGDEADYYCGTWDSSLSAGVFGGGTKLTVLG | 0.72 | 4 |  | 
4 | 1B18 IgG (antibody, V domains shown) VH: EVQLVQSGGGLVQPGGSRRLSCAASGFYFNAYWMTWVRQAPGKGLEWVANINLDGTEIYYLDSVKGRFTVSRDNVKNSVFLQMSSLRVEDTAVYFCARLEWGGRNGWVSPWGQGTLVTVSS VL: DVVMTQSPSSVSASVGDRVTITCRASQSISSYLNWYQQRPGKAPKLLIFAASSLQSAVPSRFSGSGSGTDFTLTISSLQPEDFATYYCQQSYSTPPTFGQGTKVEIKR |  |  | 0.021 | 0.972
5 | B12.1 IgG (antibody, V domains shown) VH: QVNLRESGGGVVQPGRSLRLSCAASGFTFSSYALHWVRQTPGKGLEWVALISYDGSNKYYADSVKGRFTISRDNSKNMLYLQMNSLRAEDTAVYYCAKDRSHYGDYVGYLDYWGQGTLVTVSS VL: AYVLTQPPSVSVAPGKTAAITCEGNNVGNKNVHWYQQRPGQAPVLVVHDDSDRPSGIPERFSGSNSGNTATLTINRVEAGDEADYYCQVWDSSSAQWVFGGGTKLTVLG |  |  | 0.625 | 0.0462
6 | 1B11 scFv (yeast displayed) (scFv) scFv: QVQLLQSAGGVVQPGRSLRLSCAASGFIFRTYGMHWVRQAPGKGLEWVAFVSSDGNNKFYSDSVKGRFTIPRDNAKNTLYLQMNSLETEDTAVYYCAKDRYPIDCSGGSCFSYGMDVWGQGTTVTVSSGGGGSGGGGSGGGGSDIVMTQSPSTLSASVGDRVTVTCRASQSINSWLAWYQQKPGKAPKLLIYEASSLESGVPSRFSGSGSGTEFTLTISSLQPDDFATYYCQQYDSYWLTFGGGTKVEIK |  | 4.43 |  | 
7 | 1B10 scFv (yeast displayed) (scFv) scFv: QVQLVESGGGVVQPGRSLRLSCAASGFTFSHYGMHWVRQSPGKGLEWVAVIWYDGRNPYYAASVKGRFTISRDNDKNTLYLQMNSLRAEDTAVYYCVKDLTRFHDTTFGVFEMWGPGTTVTVSSGGGGSGGGGSGGGGSEIVLTQSPSSLSASVGDRITITCRASQSISSWLAWYQQKPGKAPMVLIYKASSLENGVPSRFSGSGSGTEFTLTISSLQPDDFATYYCQQYSTYSRTFGQGTKVEIKR | 4.69 | > 5000 |  | 
8 | 2B25.1 IgG (antibody, V domains shown) VH: QVQLQESGPGLVKPSQTLSLSCSVSGASITSGTFYWSWIRQHPGKDLEWIGYIYYSGTTYYNPSLKSRVTLSVDTSKNQFSLKVTSLTAADTAVYHCARGVPIYDSSGTYRGTYFDYWGQGTLVTVSS VL: ESVLTQPPSVSAAPGQKVTISCSGSSSNIGNNYVSWYQQLPGTAPKLLIYDNNRRPSGIPDRFSGSKSGTSATLGITGLQTGDEADYYCGTWDSSLSEVVFGGGTKVTVLG |  |  | 0.03 | 0.0177
9 | 2B23 IgG (antibody, V domains shown) VH: EVQLLESGGGLVQPGGSLRLSCAASGFTFSNYPMSWVRQAPGKGLAWVSSLTASGDNTFYADSVKGRFTISRDNSNNTLYLQMHSLRAEDTAVYYCAKALVGRYDISTGYYRPVMDSWGQGTLVTVSS VL: DIQMTQSPPSLSASVGDRVTITCRTSQGFTSALAWYQQKPGEPPKLLIYDASKLESGVPSRFSGSGSGTNFALTISSLQPEDFATYFCQQSNSYPLTFGGGTKVEIKR |  |  | 0.0552 | 0.048
10 | 1B18 scFv (yeast displayed) (scFv) scFv: EVQLVQSGGGLVQPGGSRRLSCAASGFYFNAYWMTWVRQAPGKGLEWVANINLDGTEIYYLDSVKGRFTVSRDNVKNSVFLQMSSLRVEDTAVYFCARLEWGGRNGWVSPWGQGTLVTVSSGGGGSGGGGSGGGGSDVVMTQSPSSVSASVGDRVTITCRASQSISSYLNWYQQRPGKAPKLLIFAASSLQSAVPSRFSGSGSGTDFTLTISSLQPEDFATYYCQQSYSTPPTFGQGTKVEIKR | 1.7 | 3.04 |  | 
11 | B11E8 IgG (antibody, V domains shown) VH: EVQLVQSGGGVVQPGRSLRLSCAASGFIFRTYGMHWVRQAPGKGLEWVAFVSSDGNNKFYSDSVKGRFTISRDNAKNTLYLQMNSLETEDTAMYYCAKDRYPIDCSGGSCFSYGMDVWGQGTTVTVSS VL: EIVLTQSPATLSVSPGERATLSCRASQSVSKFLAWYQQKRGQAPRLLIYGASTRATGIPARFSGSGSGTEFALTISSLQSEDFADYYCQQYDNWPITFGQGTRLEIKR |  |  |  | 0.0156
12 | 1B10.1 IgG (antibody, V domains shown) VH: QVQLVESGGGVVQPGRSLRLSCAASGFTFSHYGMHWVRQSPGKGLEWVAVIWYDGRNPYYAASVKGRFTISRDNDKNTLYLQMNSLRAEDTAVYYCVKDLTRFHDTTFGVFEMWGPGTTVTVSS VL: EIVLTQSPSFVSASVGDRVTITCRASQGISSWLAWYQQKPGKAPKLLIYAASSLQSGVPSRFSGSGSGTEFTLTISSLQPDDFATYYCQQYSSLYTFGQGTKVDIKR |  |  | 0.00047 | 1.2
13 | 2B27 scFv (yeast displayed) (scFv) scFv: EVQLQESGPGLVKPSETLSVTCAVSGGSISSSNYSWAWIRQPPGKGLEWIGTMYYSGSTHYHPSLKSRVTISVDTSKSQLSLKLSSVTAADTAVYYCARRRLLGPSPYYFDYWGQGTLVTVSSGGGGSGGGGSGGGGSQSVVTQPPSVSGAPGQRVTISCSGSSSNIGAGYDVHWYQQLPGTAPKLLIYGNNNRPSGVPDRFSGSKSGTSASLAITGLQAEDEADYYCQSYDSSLSAYVFGTGTKLTVLG | 0.77 | 2.32 |  | 
